From patent US6831059 (ALLERGAN SALES, dated 2004)

Legend:
[1] = molecular target: native BoNT/A H chain (UniProt P0DPI0)
[2] = molecular target: native TeTx H chain (UniProt P04958)
[3] = molecular target: T1, native TeTx H chain (UniProt P04958 458-1315); test: reassociation by dialysis, non-reducing SDS-PAGE, silver staining
T1 sequence: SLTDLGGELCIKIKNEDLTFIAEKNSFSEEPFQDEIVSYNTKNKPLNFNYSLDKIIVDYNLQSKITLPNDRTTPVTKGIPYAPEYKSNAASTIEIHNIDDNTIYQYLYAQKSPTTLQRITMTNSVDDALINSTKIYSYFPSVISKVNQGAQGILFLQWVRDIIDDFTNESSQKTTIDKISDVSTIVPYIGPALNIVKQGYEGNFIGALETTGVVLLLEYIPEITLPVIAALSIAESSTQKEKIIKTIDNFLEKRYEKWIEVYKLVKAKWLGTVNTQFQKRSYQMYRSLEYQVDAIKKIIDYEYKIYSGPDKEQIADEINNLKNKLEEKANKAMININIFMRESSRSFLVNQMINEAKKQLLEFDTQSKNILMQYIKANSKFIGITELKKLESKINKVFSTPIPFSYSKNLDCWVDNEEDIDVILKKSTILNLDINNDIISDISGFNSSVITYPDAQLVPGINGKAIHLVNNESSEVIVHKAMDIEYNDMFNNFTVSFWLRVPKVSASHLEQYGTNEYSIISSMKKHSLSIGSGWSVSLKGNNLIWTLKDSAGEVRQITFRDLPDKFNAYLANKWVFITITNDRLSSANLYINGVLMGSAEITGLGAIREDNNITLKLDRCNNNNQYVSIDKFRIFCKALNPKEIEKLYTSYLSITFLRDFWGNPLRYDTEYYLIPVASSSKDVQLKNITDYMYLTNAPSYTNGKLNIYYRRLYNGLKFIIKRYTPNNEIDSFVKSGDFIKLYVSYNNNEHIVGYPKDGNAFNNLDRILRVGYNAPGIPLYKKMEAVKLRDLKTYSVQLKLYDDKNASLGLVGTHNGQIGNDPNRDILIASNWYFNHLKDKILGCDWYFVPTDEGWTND

Sequence of native BoNT/A H chain (P0DPI0 449-1296 limits assumed): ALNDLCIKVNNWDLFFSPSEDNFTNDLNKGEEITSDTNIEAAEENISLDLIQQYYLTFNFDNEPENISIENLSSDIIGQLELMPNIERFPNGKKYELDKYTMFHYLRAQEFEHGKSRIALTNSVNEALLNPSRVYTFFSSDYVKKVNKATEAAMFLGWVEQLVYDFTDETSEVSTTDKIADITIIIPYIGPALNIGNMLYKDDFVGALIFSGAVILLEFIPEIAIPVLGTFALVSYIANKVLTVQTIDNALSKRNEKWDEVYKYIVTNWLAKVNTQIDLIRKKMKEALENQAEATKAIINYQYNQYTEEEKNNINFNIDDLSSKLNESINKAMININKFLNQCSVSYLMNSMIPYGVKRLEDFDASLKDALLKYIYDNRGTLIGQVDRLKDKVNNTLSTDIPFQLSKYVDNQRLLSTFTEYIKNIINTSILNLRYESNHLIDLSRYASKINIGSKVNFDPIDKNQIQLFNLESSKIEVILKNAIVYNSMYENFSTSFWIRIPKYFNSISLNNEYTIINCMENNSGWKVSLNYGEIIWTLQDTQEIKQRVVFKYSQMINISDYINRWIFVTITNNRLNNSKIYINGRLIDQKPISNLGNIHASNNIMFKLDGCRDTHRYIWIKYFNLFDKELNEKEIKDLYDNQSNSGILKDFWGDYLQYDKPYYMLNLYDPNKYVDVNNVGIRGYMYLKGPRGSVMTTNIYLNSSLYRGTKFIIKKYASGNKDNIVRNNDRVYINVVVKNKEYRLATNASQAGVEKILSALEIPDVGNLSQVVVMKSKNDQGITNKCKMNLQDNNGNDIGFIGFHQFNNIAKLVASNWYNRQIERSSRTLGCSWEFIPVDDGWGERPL

native BoNT/A L chain (from UniProt P0DPI0 2-448) (enzyme)
proportion of L chain reassociated with the H chain [1]: > 90%

recombinant wild-type TeTx L chain (from UniProt P04958 1-457) (enzyme)
relative amount of the dichain species [2]: 55.1%

B1: native TeTx L chain (enzyme)
chain: PITINNFRYSDPVNNDTIIMMEPPYCKGLDIYYKAFKITDRIWIVPERYEFGTKPEDFNPPSSLIEGASEYYDPNYLRTDSDKDRFLQTMVKLFNRIKNNVAGEALLDKIINAIPYLGNSYSLLDKFDTNSNSVSFNLLEQDPSGATTKSAMLTNLIIFGPGPVLNKNEVRGIVLRVDNKNYFPCRDGFGSIMQMAFCPEYVPTFDNVIENITSLTIGKSKYFQDPALLLMHELIHVLHGLYGMQVSSHEIIPSKQEIYMQHTYPISAEELFTFGGQDANLISIDIKNDLYEKTLNDYKAIANKLSQVTSCNDPNIDIDSYKQIYQQKYQFDKDSNGQYIVNEDKFQILYNSIMYGFTEIELGKKFNIKTRLSYFSMNHDPVKIPNLLDDTIYNDTEGFNIESKDLKSEYKGQNMRVNTNAFRNVDGSGLVSKLIGLCKKIIPPTNIRENLYNRTA
binding result [3]: binds
